In the series the test system is T1, BsrR (Enterococcus faecium NW2), ORF:b1c0129b.
T1 sequence: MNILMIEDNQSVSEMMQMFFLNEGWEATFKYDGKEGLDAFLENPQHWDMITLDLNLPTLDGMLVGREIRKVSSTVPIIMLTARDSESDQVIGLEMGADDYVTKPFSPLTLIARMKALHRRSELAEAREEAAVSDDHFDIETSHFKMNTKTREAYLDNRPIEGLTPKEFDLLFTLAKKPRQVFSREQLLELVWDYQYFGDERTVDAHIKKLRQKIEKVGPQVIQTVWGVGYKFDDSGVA
Description: EMSA.

As to “AAATAAAACTCCTTTTTTATTGGAATAAGTTTATCTTAACAAAGAATGAACAAAAGACAAACCTTTCGTGAAGAATTCCTGAACATATTGGTTCAGTCAACAATTTAGAGTATACTATAAGAAGAGAATTTAGGAGGGAAAGA (double strand) [bsrX upstream intergenic region, 143 bp]”, the binding entry is reported as “binds”.

Values taken from publication PMC6522849.
